Experimental data reported in article PMC5505470.
Where two headings read alike, the source gives them in different places.

Key:
PTBP1-RRM1 [1] = biological target: T1, PTBP1-RRM1 (UniProt P26599-1 41-163); test: NMR
PTBP1-RRM2 [2] = biological target: T2, PTBP1-RRM2 (UniProt P26599-1 178-317, C250S;C251S); test: NMR
PTBP1 full length = PTBP1 full length (UniProt P26599-1 1-531, C250S;C251S); test: UV crosslinking CLIR-MS/MS
PTBP1-RRM1;PTBP1-RRM34 = PTBP1-RRM1;PTBP1-RRM34 (;, UniProt P26599-1;P26599-1 41-163;324-531, |); test: NMR
PTBP1-RRM34 = PTBP1-RRM34 (UniProt P26599-1 324-531); test: NMR
PTBP1-RRM2 [3] = biological target: T2, PTBP1-RRM2; test: NMR solution structure model
PTBP1-RRM1 [4] = biological target: T1, PTBP1-RRM1; test: NMR; remark: listed apart in the source

GGAGCGUUUGUCUAUAUGUUCC (structured_RNA) [EMCVE]
binding result (PTBP1-RRM1 [1]): binds
binding result (PTBP1-RRM2 [2]): binds

B1: EMCVDElinkF (structured_RNA)
RNA: GGAUACUGGCCGAAGCCGCUUGGAAUAAGGCCGGUGUGCGUUUGUCUAUAUGUUAUUUUCCACCAUAUUGCCGUCUUUUGGCAAUGUG
binding result (PTBP1 full length): binds

B2: EMCVDElink (structured_RNA)
RNA: GGAUACUGGCCGAAGCCGCUUGGAAUAAGGCCGGUGUGCGUUUGUCUAUAUGUUAUUUUCCAC
binding result (PTBP1-RRM1;PTBP1-RRM34): binds
binding result (PTBP1-RRM34): binds

GGAUAUUGCCGUCUUUUGGCAAUGUCC (structured_RNA) [EMCVF]
binding result (PTBP1-RRM2 [3]): binds
binding result (PTBP1-RRM1 [4]): binds
